Data taken from article PMC10221975 (Pharmaceutics, 2023).

Target: the molecule itself
Assay: dynamic light scattering; after irradiation of the N2O-saturated solution with 0.1 M NaN3 (oxidation by N3 radicals), 70 μM protein, 25 °C; the species seen are held by covalent bonds (dityrosine)

B1: papain (enzyme, UniProt P00784 134-345, looked up)
chain: IPEYVDWRQKGAVTPVKNQGSCGSCWAFSAVVTIEGIIKIRTGNLNEYSEQELLDCDRRSYGCNGGYPWSALQLVAQYGIHYRNTYPYEGVQRYCRSREKGPYAAKTDGVRQVQPYNEGALLYSIANQPVSVVLEAAGKDFQLYRGGIFVGPCGNKVDHAVAAVGYGPNYILIKNSWGTGWGENGYIRIKRGTGNSYGVCGLYTSSFYPVKN
notes: papain; source: bought: Roth (8933.1), used as received
- stoichiometry N: 2
